Measurements: patent US20200216536A1
Several values for one entry are separate records, joined by “and”; a condition that tells them apart may be missing. Identical values can stand only once.

Experiments:
canine FcRn [1] = target: T1, canine FcRn (UniProtKB-E2ROL6 [FcRn] and UniProtKB-E2RN10 [canine beta-2-microglobulin]) (canine); assay: SPR Biacore 8K, pH 5.5, Fc captured on BSA via SASA tag, FcRn 200 nM
canine FcRn [2] = target: T1, canine FcRn; assay: as above; remark: listed apart in the source
canine FcRn [3] = target: T1, canine FcRn; assay: as above; remark: listed apart in the source
canine FcRn [4] = target: T1, canine FcRn; assay: as above; remark: listed apart in the source
canine FcRn [5] = target: T1, canine FcRn; assay: as above; remark: listed apart in the source
canine FcRn [6] = target: T1, canine FcRn; assay: as above; remark: listed apart in the source
canine FcRn [7] = target: T1, canine FcRn; assay: as above; remark: listed apart in the source
canine FcRn [8] = target: T1, canine FcRn; assay: as above; remark: listed apart in the source
canine FcRn [9] = target: T1, canine FcRn; assay: SPR Biacore 8K, pH 5.5, Fc captured on BSA via SASA tag, FcRn 100-800 nM
canine FcRn [10] = target: T1, canine FcRn; assay: SPR Biacore 8K, pH 5.5, Fc captured on BSA via SASA tag, FcRn 400 nM; average of the 12 wild-type runs

Kd (canine FcRn [1]): 8990 nM and 3110 nM
koff (canine FcRn [1]): 0.347 s⁻¹ and 0.354 s⁻¹
kon (canine FcRn [1]): 38700 M⁻¹ s⁻¹ and 114000 M⁻¹ s⁻¹
Kd (canine FcRn [2]): 1710 nM and 2660 nM
koff (canine FcRn [2]): 0.288 s⁻¹ and 0.326 s⁻¹
kon (canine FcRn [2]): 168000 M⁻¹ s⁻¹ and 123000 M⁻¹ s⁻¹
Kd (canine FcRn [3]): 2050 nM and 2990 nM
koff (canine FcRn [3]): 0.31 s⁻¹ and 0.315 s⁻¹
kon (canine FcRn [3]): 151000 M⁻¹ s⁻¹ and 105000 M⁻¹ s⁻¹
Kd (canine FcRn [4]): 884 nM and 862 nM
koff (canine FcRn [4]): 0.21 s⁻¹ and 0.218 s⁻¹
kon (canine FcRn [4]): 237000 M⁻¹ s⁻¹ and 253000 M⁻¹ s⁻¹
Kd (canine FcRn [5]): 639 nM and 692 nM
koff (canine FcRn [5]): 0.17 s⁻¹ and 0.171 s⁻¹
kon (canine FcRn [5]): 267000 M⁻¹ s⁻¹ and 247000 M⁻¹ s⁻¹
Kd (canine FcRn [6]): 502 nM and 784 nM
koff (canine FcRn [6]): 0.169 s⁻¹ and 0.207 s⁻¹
kon (canine FcRn [6]): 336000 M⁻¹ s⁻¹ and 264000 M⁻¹ s⁻¹
Kd (canine FcRn [7]): 1560 nM and 754 nM
koff (canine FcRn [7]): 0.179 s⁻¹ and 0.182 s⁻¹
kon (canine FcRn [7]): 115000 M⁻¹ s⁻¹ and 242000 M⁻¹ s⁻¹
Kd (canine FcRn [8]): 955 nM and 1310 nM
koff (canine FcRn [8]): 0.181 s⁻¹ and 0.209 s⁻¹
kon (canine FcRn [8]): 190000 M⁻¹ s⁻¹ and 159000 M⁻¹ s⁻¹
Kd (canine FcRn [9]): 3150 nM
koff (canine FcRn [9]): 0.527 s⁻¹
kon (canine FcRn [9]): 168000 M⁻¹ s⁻¹
Kd (canine FcRn [10]): 566 nM
B1: wild-type canine IgG.B Fc (CH2 and CH3 domains) with SASA tag (Fc fusion, not shown: small tags and cut ends)
chain: APEMLGGPSVFIFPPKPKDTLLIARTPEVTCVVVDLDPEDPEVQISWFVDGKQMQTAKTQPREEQFNGTYRVVSVLPIGHQDWLKGKQFTCKVNNKALPSPIERTISKARGQAHQPSVYVLPPSREELSKNTVSLTCLIKDFFPPDIDVEWQSNGQQEPESKYRTTPPQLDEDGSYFLYSKLSVDKSRWQRGDTFICAVMHEALHNHYTQESLSHSPGK
